B1: E3 ubiquitin-protein ligase ARIH2 (Homo sapiens), O95376 (parent)
chain: MSVDMNSQGSDSNEEDYDPNCEEEEEEEEDDPGDIEDYYVGVASDVEQQGADAFDPEEYQFTCLTYKESEGALNEHMTSLASVLKVSHSVAKLILVNFHWQVSEILDRYKSNSAQLLVEARVQPNPSKHVPTSHPPHHCAVCMQFVRKENLLSLACQHQFCRSCWEQHCSVLVKDGVGVGVSCMAQDCPLRTPEDFVFPLLPNEELREKYRRYLFRDYVESHYQLQLCPGADCPMVIRVQEPRARRVQCNRCNEVFCFKCRQMYHAPTDCATIRKWLTKCADDSETANYISAHTKDCPKCNICIEKNGGCNHMQCSKCKHDFCWMCLGDWKTHGSEYYECSRYKENPDIVNQSQQAQAREALKKYLFYFERWENHNKSLQLEAQTYQRIHEKIQERVMNNLGTWIDWQYLQNAAKLLAKCRYTLQYTYPYAYYMESGPRKKLFEYQQAQLEAEIENLSWKVERADSYDRGDLENQMHIAEQRRRTLLKDFHDT

Variants of: B1
Conditions: with cul5_human CUL5, Q93034
Sequence of cul5_human CUL5, Q93034 (Q93034 whole entry): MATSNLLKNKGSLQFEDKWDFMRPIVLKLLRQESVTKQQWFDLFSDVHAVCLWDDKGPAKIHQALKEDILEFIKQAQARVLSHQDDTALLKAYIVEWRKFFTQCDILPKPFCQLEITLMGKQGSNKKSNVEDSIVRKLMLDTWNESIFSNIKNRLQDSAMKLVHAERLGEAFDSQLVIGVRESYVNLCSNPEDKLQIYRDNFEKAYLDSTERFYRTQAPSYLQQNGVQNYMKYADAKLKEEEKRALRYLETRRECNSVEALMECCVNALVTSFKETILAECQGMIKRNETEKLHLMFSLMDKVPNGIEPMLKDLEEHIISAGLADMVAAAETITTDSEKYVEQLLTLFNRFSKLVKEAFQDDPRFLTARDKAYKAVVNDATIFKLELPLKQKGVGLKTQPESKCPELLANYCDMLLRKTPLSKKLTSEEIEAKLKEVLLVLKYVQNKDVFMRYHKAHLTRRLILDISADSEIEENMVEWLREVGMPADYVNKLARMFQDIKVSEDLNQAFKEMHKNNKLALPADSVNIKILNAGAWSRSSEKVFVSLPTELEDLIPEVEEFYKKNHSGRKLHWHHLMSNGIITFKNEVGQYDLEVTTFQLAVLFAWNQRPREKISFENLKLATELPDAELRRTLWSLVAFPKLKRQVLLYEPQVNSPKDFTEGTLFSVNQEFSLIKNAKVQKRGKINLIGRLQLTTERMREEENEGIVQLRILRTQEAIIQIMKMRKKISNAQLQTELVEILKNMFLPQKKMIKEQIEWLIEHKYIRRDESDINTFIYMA

effect of a mutation on the interaction | Variant
increasing interaction | C310S

Variants of: B1
Conditions: with cul5_human CUL5, Q93034
Remark: another data set of the same source

effect of a mutation on the interaction | Variant
increasing interaction | C310A

Variants of: B1
Conditions: with ub2l3_human UBE2L3, P68036

effect of a mutation on the interaction | Variant
disrupting interaction | H158A

Variants of: B1
Conditions: with cul5_human CUL5, Q93034
Remark: another data set of the same source

effect of a mutation on the interaction | Variant
increasing interaction | C300A

Variants of: B1
Conditions: with cul5_human CUL5, Q93034
Remark: another data set of the same source

effect of a mutation on the interaction | Variant
increasing interaction | C318A

Variants of: B1
Conditions: with cul5_human CUL5, Q93034
Remark: another data set of the same source

effect of a mutation on the interaction | Variant
decreasing interaction | L84A;V86A;W100A

Variants of: B1
Conditions: with cul5_human CUL5, Q93034
Remark: another data set of the same source

effect of a mutation on the interaction | Variant
decreasing interaction | W100A
